One data set relates to HUVEC and HMVEC cells. The data set is described as follows: Endothelial cell differentiation (tube formation) assay. In kind it is cell-based, human. The procedure: Endothelial cell differentiation (tube formation) assays were done using an in vitro angiogenesis assay kit (Chemicon, Temecula, Calif.). Briefly, HUVEC and HMVEC cells were grown to 80% confluency, collected, resuspended in growth medium and plated at a concentration of 2×10^4 cells/well in a 96-well plate coated with matrigel (Chemicon, Temecula, Calif.). To the wells, varying concentrations of MDA-7 protein were added and incubated for 24 h at 37° C. Wells that were not treated with MDA-7 protein served as a negative control. The ability of sMDA-7 to inhibit tube formation was determined and quantitated by counting the number of tubes under bright field microscopy. All samples were tested in duplicate. For comparative studies using MDA-7 and endostatin (Calbiochem), cells were plated as described above and exposed to varying concentration of the proteins. […] All other experimental procedures were the same as described above.

The next data set deals with HUVEC cells. Put plainly: Endothelial cell migration assay. In kind it is cell-based, human. Conditions: VEGF 100 ng/ml. The procedure:
Migration assays were performed using HUVEC cells. Cells were starved overnight in basal medium containing 0.5% fetal bovine serum (FBS), collected and re-suspended in the same medium and seeded at a concentration of 1×10^5 cells/well in the upper surface of a 24-well transwell insert with a filter size of 8 μm (Millipore, Cambridge, Mass.). The insert was placed in a 6-well plate that contained medium plus VEGF (100 ng/ml) or VEGF plus MDA-7 (10 ng/ml). The plates containing the transwell were incubated at 37° C. overnight to allow migration. The following day, the wells were disassembled, membranes fixed in crystal violet and the number of cells that had migrated to the lower wells were counted under high power magnification (×40).

A further data set relates to HUVEC. Put plainly: IP-10 and IFN-γ production by ELISA. The settings on record: sMDA-7 treated HUVEC supernatant. The data set is classed as cell-based, human. The procedure:
HUVEC was seeded in six-well plates (1×10^5/well) and treated with sMDA-7 (10 ng/ml). Cell culture supernatant was collected at 6 h, 24 h, and 48 h after treatment, centrifuged at 1200 rpm, and analyzed for IP-10 and IFN-γ protein production using commercially available ELISA kits. Assays were performed as recommended by the manufacturer (R&D Systems, Minneapolis, Minn.). Cells treated with recombinant IFN-γ served as positive controls for IP-10 while cells treated with Ad-mda7 (3000 vp/cell) served as positive control for IFN-γ. Untreated cells served as negative controls in these experiments. Samples were analyzed in quadruplicate and data represented as the average value for each concentration of sMDA-7 tested.
On the technique in general: In an ELISA, binding on a coated surface is turned into a signal by an enzyme label.

The test system of the next data set is STAT-3. Put plainly: pSTAT-3 Western blot and immunofluorescence. In kind it is cell-based, human. The procedure: To determine the regulation of pSTAT-3 expression following the addition of sMDA-7, Western blot analysis was performed as described previously (Wang et al., 2002). Briefly, cells were harvested by trypsinization and resuspended in lysis buffer (62.5 mM Tris-HCl, 2% SDS, 10% glycerol, 4 M urea). Protein samples (50 μg) were each diluted into a 20 μl solution of lysis buffer and 5% 2-mercaptoethanol (Bio-Rad Laboratories, Hercules, Calif.) and heated in a water bath at 95° C. for 5 min. Protein extracts were then separated by 10% SDS-PAGE in a vertical-slab gel electrophoresis cell (Bio-Rad). The separated proteins were transferred from gel to nitrocellulose membrane (Hybond-ECL; Amersham Pharmacia Biotech, Buckinghamshire, England) and then blocked in a blocking solution (5% dry milk and 0.3% Tween 20 in PBS) for 1 hour. Membranes were incubated with the primary antibodies against pSTAT-3 (1:1000), and β-actin (1:10000). The membranes were then incubated with horseradish peroxidase-labeled secondary antibodies (Amersham). Finally, the proteins were visualized on enhanced chemiluminescence film (Hyperfilm, Amersham) by application of Amersham's Enhanced Chemiluminescence Western blotting detection system.
Activation of STAT-3 was also determined by immunofluorescence assay. HUVEC seeded in two-well chamber slides (1×10^4 cells/well) was treated with sMDA-7 (10 ng/ml) for 4 h, washed in PBS, fixed in cold acetic acid and stained for phosphorylated STAT-3 (pSTAT-3) using rabbit anti-human pSTAT-3 antibody (1:1000, Cell Signaling Technology, Beverly, Mass.) and rhodamine labeled anti-rabbit secondary antibody (1:5000; Molecular Probes, Eugene, Oreg.). Slides were mounted using anti-fade mounting reagent (Vector Laboratories). Pictures were taken 1-2 h after staining using a fluorescence microscope.

Data set [1] has as its system bFGF-induced angiogenesis. Put plainly: In vivo angiogenesis Matrigel assay. More on the design: species or system athymic nude mice. The procedure: To determine the anti-angiogenic activity of sMDA-7, an in vivo angiogenesis assay was performed. Briefly, sMDA-7 and bFGF were mixed with 500 μl of matrigel (Beckton and Dickenson) on ice and injected subcutaneously into athymic nude mice. Animals receiving matrigel containing only bFGF (60 ng) served as a positive control while animals receiving matrigel containing no growth factor served as a negative control. Each group consisted of 5 animals. Experiments were terminated on day 10 and the matrigel was harvested, photographed and subjected to hemoglobin analysis as described previously (Caudel et al., 2002).

Another data set can be described thus: Serum sMDA-7 by ELISA. The data set is classed as in vivo, nude mice. Conditions: animals implanted with 293 cells producing MDA-7. The source says:
Mice were inoculated subcutaneously with A549 tumor cells in the lower right flank as described in Example 19. When the tumors had reached a size of 50 mm^3, 293 cells producing sMDA-7 (293-mda-7) or parental 293 cells (control) were encapsulated in matrigel and implanted subcutaneously at a site distant (upper right flank) from the tumor and the tumor growth was monitored. […] In comparison to the control, the growth of the tumors was suppressed by 50% after implantation of the encapsulated 293 cells producing MDA-7 protein. To confirm that the inhibitory effect was due to sMDA-7, serum samples from animals were tested for MDA-7 protein by Western blot analysis and ELISA. […] However, faint bands were also observed in the control that may be due to some cross-reactivity with serum proteins. The serum levels of sMDA-7 detected by ELISA was approximately 50 ng/ml.

A further data set has as its system tumor cells. The data set is described as follows: Tumor cell death by secreted MDA-7 supernatant and bystander mixing. The data set is classed as cell-based, human. Conditions: supernatant from 293 cells applied to tumor cell cultures. The procedure: This hypothesis was further tested by adding secreted MDA-7 to tumor cells and monitoring cell death. […] When culture supernatants were treated to minimize Ad-mda7 contamination, negligible cell death was induced by MDA-7 containing supernatants. When supernatant from 293 cells was applied to tumor cell cultures, only low levels of cell death were seen (approximately 10-15% above background levels) confirming that the secreted MDA-7, at least at the concentrations released by these cells, was not sufficient to elicit substantial cell death in tumor cells.
In that study, H460 cells were transduced with Ad-mda7 and immunostained with anti-MDA-7 antibody in conjunction with Annexin V staining. By confocal analysis, it was observed that some cells were Annexin V positive but were negative for MDA-7 expression. The frequency of Annexin V positive/MDA-7 negative cells was low and […] in multiple cells lines. Thus, to further evaluate the contribution of secreted MDA-7 in inducing apoptosis in neighboring cells, a series of bystander experiments were performed. Ad-mda7 transduced cells were mixed with native cells that had been previously labled with Ad-GFP and the cultures were scored for apoptosis in the GFP positive cells.

The test system of another data set is human PBMC. The settings on record: cited from earlier work.

Data on 1 molecule can be found in patent publication US20040009939A1, “Methods of enhancing immune induction involving MDA-7” (Board of Regent, The University of Texas System, priority 2002, published 2004).

“Also recorded” adds a separate entry of the source.

B1: sMDA-7: secreted, glycosylated MDA-7 protein purified from supernatant of 293-mda-7 cells (protein)
chain: AQGQEFHFGPCQVKGVVPQKLWEAFWAVKDTMQAQDNITSARLLQQEVLQNVSDAESCYLVHTLLEFYLKTVFKNYHNRTVEVRTLKSFSTLANNFVLIVSQLQPSQENEMFSIRDSAHRRFLLFRRAFKQLDVEAALTKALGEVDILLTWMQKFYKL
For B1, in the data set with HUVEC and HMVEC cells (HUVEC and HMVEC), the “concentration giving complete abrogation of tubular formation” value was 10 ng/mL. The “inhibition of endothelial tube formation” value with HUVEC and HMVEC cells (HUVEC and HMVEC, 24 h) is given as “significant inhibition of endothelial tube formation”. For the same molecule, the “tubular formation in the presence of IL-10R neutralizing antibody” value with HUVEC and HMVEC cells (HUVEC, antibody 5 ng, sMDA-7 5 ng) is recorded as “able to inhibit tubular formation”. Further, in the data set with HUVEC and HMVEC cells (HUVEC, sMDA-7 5 ng), the tube formation result is given as “complete inhibition of tube formation”. Moreover, the “amount giving complete inhibition of migration” value in the data set on HUVEC cells (MDA-7) stood at 50 ng. Moreover, the “endothelial cell migration induced by VEGF” value with HUVEC cells (sMDA-7 10 ng/ml) is recorded as “blocked endothelial cell migration”. The IFN-γ induction entry in the data set with HUVEC is on record as “IP-10 but not IFN-γ was induced”. For the same molecule, in the data set with HUVEC (various time points), the “amount of IP-10 produced” value lay in the range of 15 to 32 pg/mL. The pSTAT-3 protein expression entry with STAT-3 (HUVEC and HMVEC, Western blot) is listed as “significant increase in the phosphorylated form of STAT-3 (pSTAT-3) protein expression as early as 4 h”. In addition, the “nuclear localization of pSTAT-3” value in the data set with STAT-3 (HUVEC, immunofluorescence) is recorded as “increased nuclear localization of pSTAT-3 protein”. In addition, in the data set on STAT-3 (after treatment), the “time of maximal pSTAT-3 expression” value is 24 h. In data set [1] (day 10, vs no bFGF, only bFGF, or endostatin), the “hemoglobin content in the matrigel” value was “very significant (p=0.0001) inhibitory effect; also recorded: significant reduction in hemoglobin content”. Moreover, the “bFGF-induced angiogenesis in matrigel” value in data set [1] (sMDA-7 10 ng, 10 days after implantation) was “inhibition of bFGF-induced angiogenesis”. Moreover, the “serum levels of sMDA-7 detected by ELISA” value in the data set “Serum sMDA-7 by ELISA” is listed as “approximately 50 ng/ml”. Also, the “cell death above background levels” value with tumor cells is 10-15%. The cytokine induction entry in the data set on human PBMC is “causes the induction of IFN-γ, IL-6 and TNF-α”.
